Results reported in article PMC11768756.

Target: MK-1654 IgG (human)
Assay: SPR; Biacore 8K+; MK-1654 IgG captured on a Protein A chip (about 110 RU); 1A6 or 1D4 Fab flowed at 0.4-128 nM, 60 s contact and 60 s dissociation, 30 µL/min; global 1:1 fit; KD = koff/kon; averages of three runs

MK-1654 IgG (human), sequence (heavy, as listed by the source, chain 1 of 2): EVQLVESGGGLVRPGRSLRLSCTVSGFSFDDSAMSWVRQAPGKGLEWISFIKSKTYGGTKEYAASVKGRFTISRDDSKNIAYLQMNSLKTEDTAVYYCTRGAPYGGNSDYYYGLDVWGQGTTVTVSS
MK-1654 IgG (human), sequence (light, as listed by the source, chain 2 of 2): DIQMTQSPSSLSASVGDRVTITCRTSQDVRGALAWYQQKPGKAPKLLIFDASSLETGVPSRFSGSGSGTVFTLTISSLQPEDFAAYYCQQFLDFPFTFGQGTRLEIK

Kd [nM]	koff [s⁻¹]	kon [M⁻¹ s⁻¹]	Binder
3.75	0.013	3.5e+06	1D4 anti-idiotypic Fab (Fab, V domains shown) VH: QVQLVESGGGLVQPGGSLRLSCAASGFTFSSSGLHWVRQAPGKGLEWVSGIDSSSSTTYYADSVKGRFTISRDNSKNTLYLQMNSLRAEDTAVYYCARYYFDVWGQGTLVTVSS VL: DIELTQPPSVSVAPGQTARISCSGDSIGTYAYWYQQKPGQAPVLVIYADDNRPSGIPERFSGSNSGNTATLTISGTQAEDEADYYCSSWATDNAPVFGGGTKLTVL
0.94	0.00628	6.67e+06	1A6 anti-idiotypic Fab (Fab, V domains shown) VH: QVQLVESGGGLVQPGGSLRLSCAASGFTFSSYAMNWVRQAPGKGLEWVSLISGSGSSTYYADSVKGRFTISRDNSKNTLYLQMNSLRAEDTAVYYCARFHTHGGYFDIWGQGTLVTVSS VL: DIALTQPASVSGSPGQSITISCTGTSSDIGAYTYGSWYQQHPGKAPKLMIYGVNNRPSGVSNRFSGSKSGNTASLTISGLQAEDEADYYCASFDFSVSGVVFGGGTKLTVL
